# Measured values: PMC5784833 (Journal of the American Chemical Society, 2017)
# System: CC(=O)Oc1ccc([N+](=O)[O-])cc1
# Assay: purified protein
substance,measurement,value
carbonic anhydrase II (CA-II) (Homo sapiens),Km,2520 ± 260 µM
